Five substances from publication doi:10.1101/2022.07.07.22277364 can be followed below.

Holding throughout (test): BLI
(In general: BLI is a label-free optical method that tracks binding on a fibre tip over time.)

Assay [1] concerns the target human ACE2 polymorphism K26R (rs4646116) (human) (UniProt Q9BYF1).
Assay [2] concerns the target human ACE2 polymorphism S19P (rs73635825) (human) (UniProt Q9BYF1).
Assay [3] has as its target truncated human ACE2 (residues 19-613 with a C-terminal AviTag and 6xHis-tag), biotinylated (human) (UniProt Q9BYF1).

By Kd is commonly meant a measure of binding affinity in units of concentration. Low values mean higher affinity, high ones lower affinity. Consider “SARS-CoV-2 Omicron BA.2 RBD (from UniProt P0DTC2) (domain or fragment)”, for which the Kd in assay [1] was 5.18 nM; in assay [2], 4.97 nM. This substance also displayed a t1/2 in assay [3] of 2.7 min.

For the substance “SARS-CoV-2 RBD Beta (B.1.351) (from UniProt P0DTC2) (domain or fragment)”, the t1/2 in assay [3] was determined as 2.75 min.

In turn, “SARS-CoV-2 RBD Alpha (B.1.1.7), N501Y (from UniProt P0DTC2) (domain or fragment)” yielded a t1/2 in assay [3] of 5.49 min.

Substance “SARS-CoV-2 RBD Gamma (P.1) (from UniProt P0DTC2) (domain or fragment)” displayed a t1/2 in assay [3] of 3.58 min.

In assay [3], “SARS-CoV-2 ancestral RBD recombinant protein (from UniProt P0DTC2) (domain or fragment)” returned a t1/2 of 1.39 min.
